Target: 2,4,6-TCP 4-monooxygenase (TcpA) from Cupriavidus necator JMP134 (Cupriavidus necator JMP134)
Assay: SEC-MALS; 100 μg TcpA on BioSep-SEC-S 2000 column, isocratic, 0.5 mL/min; multi-angle laser light scattering; tetramer

stoichiometry N: 4
Substance: 2,4,6-TCP 4-monooxygenase (TcpA) from Cupriavidus necator JMP134 (enzyme)

Source: PMC3431827
